In article PMC8924211 (Nature Communications, 2022):

Experiments:
Assay in all cases: AlphaScreen or HTRF; saturation binding: HEK293 cells transfected with SNAP-tagged receptor (WT or mutant) and labelled with SNAP-Lumi4-Tb, incubated with increasing concentrations of galanin-A2 in the presence or absence of 100 uM unlabeled galanin, 1 h at room temperature; HTRF ratio 665 nm/620 nm
Conditions in all cases: one partner purified
SNAP-GAL1R H263^6.51A = biological target: T1, SNAP-GAL1R H263^6.51A (human, UniProt P47211 1-349, H263^6.51A, Lumi4-Tb on the SNAP tag)
T1 construct: also called H263A; source: HEK293, transfected, on cells; not shown: SNAP tag, N-terminal, kept
T1 sequence (looked up): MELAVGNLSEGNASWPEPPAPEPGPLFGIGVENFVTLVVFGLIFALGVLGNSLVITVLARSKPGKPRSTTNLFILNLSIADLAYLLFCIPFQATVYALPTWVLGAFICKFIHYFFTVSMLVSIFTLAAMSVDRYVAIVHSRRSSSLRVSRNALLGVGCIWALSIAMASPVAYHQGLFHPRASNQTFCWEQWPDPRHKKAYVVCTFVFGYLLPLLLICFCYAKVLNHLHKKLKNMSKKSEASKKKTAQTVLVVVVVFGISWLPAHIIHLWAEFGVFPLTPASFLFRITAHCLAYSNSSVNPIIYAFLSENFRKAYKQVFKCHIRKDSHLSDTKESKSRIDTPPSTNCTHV

SNAP-GAL1R R285^7.35A = biological target: T2, SNAP-GAL1R R285^7.35A (human, UniProt P47211 1-349, R285^7.35A, Lumi4-Tb on the SNAP tag)
T2 construct: also called R285A; source: HEK293, transfected, on cells; not shown: SNAP tag, N-terminal, kept
T2 sequence (looked up): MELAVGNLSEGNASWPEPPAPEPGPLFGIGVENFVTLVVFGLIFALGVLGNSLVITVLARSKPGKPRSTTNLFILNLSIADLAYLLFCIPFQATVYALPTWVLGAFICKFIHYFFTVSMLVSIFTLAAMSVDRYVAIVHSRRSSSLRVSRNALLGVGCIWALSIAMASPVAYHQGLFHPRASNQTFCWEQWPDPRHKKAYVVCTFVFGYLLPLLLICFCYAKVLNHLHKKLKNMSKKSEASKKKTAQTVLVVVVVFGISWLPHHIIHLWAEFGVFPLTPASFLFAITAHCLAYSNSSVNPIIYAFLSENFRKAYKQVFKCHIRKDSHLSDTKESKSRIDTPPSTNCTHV

SNAP-GAL1R W260^6.48A = biological target: T3, SNAP-GAL1R W260^6.48A (human, UniProt P47211 1-349, W260^6.48A, Lumi4-Tb on the SNAP tag)
T3 construct: also called W260A; source: HEK293, transfected, on cells; not shown: SNAP tag, N-terminal, kept
T3 sequence (looked up): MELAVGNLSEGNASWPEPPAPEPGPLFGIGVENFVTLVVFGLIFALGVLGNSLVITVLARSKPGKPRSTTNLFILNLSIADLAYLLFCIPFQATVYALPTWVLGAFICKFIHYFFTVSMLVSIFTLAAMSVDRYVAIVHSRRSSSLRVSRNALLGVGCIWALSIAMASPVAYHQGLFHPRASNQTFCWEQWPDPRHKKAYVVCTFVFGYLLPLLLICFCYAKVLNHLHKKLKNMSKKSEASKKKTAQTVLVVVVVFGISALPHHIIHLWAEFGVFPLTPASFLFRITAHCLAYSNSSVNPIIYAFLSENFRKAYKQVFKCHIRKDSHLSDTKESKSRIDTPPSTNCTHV

SNAP-GAL1R H289^7.39A = biological target: T4, SNAP-GAL1R H289^7.39A (human, UniProt P47211 1-349, H289^7.39A, Lumi4-Tb on the SNAP tag)
T4 construct: also called H289A; source: HEK293, transfected, on cells; not shown: SNAP tag, N-terminal, kept
T4 sequence (looked up): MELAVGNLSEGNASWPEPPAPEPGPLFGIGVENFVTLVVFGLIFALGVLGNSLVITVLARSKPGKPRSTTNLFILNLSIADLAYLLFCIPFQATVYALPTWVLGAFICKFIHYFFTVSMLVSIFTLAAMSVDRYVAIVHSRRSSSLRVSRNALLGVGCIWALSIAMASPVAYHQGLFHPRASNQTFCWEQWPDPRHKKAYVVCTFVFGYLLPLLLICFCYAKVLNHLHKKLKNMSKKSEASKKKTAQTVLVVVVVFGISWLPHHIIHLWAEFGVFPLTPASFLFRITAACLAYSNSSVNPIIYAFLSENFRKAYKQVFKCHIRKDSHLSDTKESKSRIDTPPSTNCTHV

SNAP-GAL1R I266^6.54A = biological target: T5, SNAP-GAL1R I266^6.54A (human, UniProt P47211 1-349, I266^6.54A, Lumi4-Tb on the SNAP tag)
T5 construct: also called I266A; source: HEK293, transfected, on cells; not shown: SNAP tag, N-terminal, kept
T5 sequence (looked up): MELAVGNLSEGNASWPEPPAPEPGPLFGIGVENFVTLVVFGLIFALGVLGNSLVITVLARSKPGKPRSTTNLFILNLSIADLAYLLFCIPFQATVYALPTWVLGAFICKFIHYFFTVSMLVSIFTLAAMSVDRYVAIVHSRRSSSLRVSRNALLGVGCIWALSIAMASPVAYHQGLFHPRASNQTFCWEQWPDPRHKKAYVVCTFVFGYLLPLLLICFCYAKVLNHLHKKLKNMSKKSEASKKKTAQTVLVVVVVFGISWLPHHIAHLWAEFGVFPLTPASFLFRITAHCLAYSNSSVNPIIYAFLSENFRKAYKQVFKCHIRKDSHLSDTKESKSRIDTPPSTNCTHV

B1: galanin-A2 (full-length galanin labeled with the dye A2 on an additional cysteine at the C-terminal end) (peptide)
peptide: GWTLNSAGYLLGPHAVGNHRSFSDKNGLTSC
modifications: dye A2 on the additional C-terminal cysteine
notes: numbers count on: the mature protein; additional cysteine at the C-terminal end of the peptide, carries the dye A2; source: synthetic peptide (synthesized by Vazyme, China)
- Kd (SNAP-GAL1R H263^6.51A): 213 nM
- Kd (SNAP-GAL1R R285^7.35A): 159 nM
- Kd (SNAP-GAL1R W260^6.48A): 51.2 nM
- Kd (SNAP-GAL1R H289^7.39A): 136 nM
- Kd (SNAP-GAL1R I266^6.54A): 245 nM
